Measured values: patent publication EP2717941B1
One block for each substance: values may come before it.

Experiments:
Test in all cases: cell-based or functional assay
[1] = target: hCXCR3 (human) (UniProt P49682)
[2] = target: CCR4 (human) (UniProt P51679)
[3] = target: CCR6 (human) (UniProt P51684)
[4] = target: hCCR9 (human) (UniProt P51686)
[5] = target: chemokine receptor CCR7 (human) (UniProt P32248)
[6] = target: hCCR2b (human) (UniProt P41597)
[7] = target: hCCR10 (human) (UniProt P46092)
Sequence of hCCR10 (human) (P46092 whole entry): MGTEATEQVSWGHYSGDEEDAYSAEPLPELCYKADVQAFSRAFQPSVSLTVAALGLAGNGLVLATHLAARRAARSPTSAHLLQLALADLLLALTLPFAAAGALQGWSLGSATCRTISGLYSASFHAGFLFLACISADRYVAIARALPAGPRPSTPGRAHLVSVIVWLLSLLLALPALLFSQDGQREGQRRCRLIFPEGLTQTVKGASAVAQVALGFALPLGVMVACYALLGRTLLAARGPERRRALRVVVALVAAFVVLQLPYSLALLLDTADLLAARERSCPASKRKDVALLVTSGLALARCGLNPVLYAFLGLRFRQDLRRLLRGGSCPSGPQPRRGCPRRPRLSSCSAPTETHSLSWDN

[8] = target: hCXCR4 (human) (UniProt P61073)
Sequence of hCXCR4 (human) (P61073 whole entry): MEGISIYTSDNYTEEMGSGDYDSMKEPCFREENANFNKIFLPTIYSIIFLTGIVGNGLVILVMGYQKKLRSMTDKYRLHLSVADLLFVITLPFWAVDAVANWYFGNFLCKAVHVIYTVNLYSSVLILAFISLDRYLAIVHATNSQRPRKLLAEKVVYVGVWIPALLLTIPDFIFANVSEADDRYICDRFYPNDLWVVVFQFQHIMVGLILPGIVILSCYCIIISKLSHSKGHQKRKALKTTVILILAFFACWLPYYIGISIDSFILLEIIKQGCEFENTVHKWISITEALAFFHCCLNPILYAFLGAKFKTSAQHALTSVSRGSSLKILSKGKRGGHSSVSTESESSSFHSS

Sequence of hCXCR3 (human) (P49682 whole entry): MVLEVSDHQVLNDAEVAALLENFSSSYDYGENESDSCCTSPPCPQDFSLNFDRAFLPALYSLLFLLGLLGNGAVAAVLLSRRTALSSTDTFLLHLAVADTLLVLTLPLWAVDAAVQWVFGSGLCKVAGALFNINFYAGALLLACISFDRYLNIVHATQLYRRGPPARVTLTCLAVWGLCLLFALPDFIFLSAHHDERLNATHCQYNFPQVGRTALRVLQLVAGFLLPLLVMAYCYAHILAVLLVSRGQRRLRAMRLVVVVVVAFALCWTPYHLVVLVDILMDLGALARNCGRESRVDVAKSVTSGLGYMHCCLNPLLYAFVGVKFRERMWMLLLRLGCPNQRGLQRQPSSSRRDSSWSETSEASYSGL
Sequence of hCCR9 (human) (P51686 whole entry): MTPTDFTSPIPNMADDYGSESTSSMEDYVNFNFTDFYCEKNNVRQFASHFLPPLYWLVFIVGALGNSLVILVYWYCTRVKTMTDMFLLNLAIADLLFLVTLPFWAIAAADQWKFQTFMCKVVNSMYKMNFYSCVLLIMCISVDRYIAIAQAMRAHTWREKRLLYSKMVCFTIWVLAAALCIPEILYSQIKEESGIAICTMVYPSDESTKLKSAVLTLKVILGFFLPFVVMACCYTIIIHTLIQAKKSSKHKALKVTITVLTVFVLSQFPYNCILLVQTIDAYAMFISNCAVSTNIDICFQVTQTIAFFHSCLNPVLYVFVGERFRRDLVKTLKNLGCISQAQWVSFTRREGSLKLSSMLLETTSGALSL
Sequence of CCR6 (human) (P51684 whole entry): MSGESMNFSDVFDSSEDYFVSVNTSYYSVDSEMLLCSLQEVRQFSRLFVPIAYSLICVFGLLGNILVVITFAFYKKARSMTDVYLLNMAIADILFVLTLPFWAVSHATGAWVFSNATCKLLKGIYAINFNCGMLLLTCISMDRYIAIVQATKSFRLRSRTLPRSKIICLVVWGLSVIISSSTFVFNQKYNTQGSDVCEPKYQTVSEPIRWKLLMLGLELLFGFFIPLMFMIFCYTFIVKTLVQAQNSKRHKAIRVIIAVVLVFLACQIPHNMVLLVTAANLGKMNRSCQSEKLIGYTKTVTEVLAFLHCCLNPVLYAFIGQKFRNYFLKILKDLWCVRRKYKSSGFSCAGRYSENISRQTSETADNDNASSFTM
Sequence of CCR4 (human) (P51679 whole entry): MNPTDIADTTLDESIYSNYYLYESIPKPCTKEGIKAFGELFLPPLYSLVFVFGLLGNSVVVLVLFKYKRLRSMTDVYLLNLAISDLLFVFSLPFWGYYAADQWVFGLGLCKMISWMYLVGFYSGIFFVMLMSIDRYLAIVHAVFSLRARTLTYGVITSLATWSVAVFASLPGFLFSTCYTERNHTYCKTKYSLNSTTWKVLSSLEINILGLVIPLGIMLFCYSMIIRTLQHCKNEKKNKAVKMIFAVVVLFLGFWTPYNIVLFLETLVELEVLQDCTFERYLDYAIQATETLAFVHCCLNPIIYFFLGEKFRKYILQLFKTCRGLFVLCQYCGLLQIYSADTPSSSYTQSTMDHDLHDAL
Sequence of hCCR2b (human) (P41597 other isoform, or with tags, fused parts or gaps limits assumed): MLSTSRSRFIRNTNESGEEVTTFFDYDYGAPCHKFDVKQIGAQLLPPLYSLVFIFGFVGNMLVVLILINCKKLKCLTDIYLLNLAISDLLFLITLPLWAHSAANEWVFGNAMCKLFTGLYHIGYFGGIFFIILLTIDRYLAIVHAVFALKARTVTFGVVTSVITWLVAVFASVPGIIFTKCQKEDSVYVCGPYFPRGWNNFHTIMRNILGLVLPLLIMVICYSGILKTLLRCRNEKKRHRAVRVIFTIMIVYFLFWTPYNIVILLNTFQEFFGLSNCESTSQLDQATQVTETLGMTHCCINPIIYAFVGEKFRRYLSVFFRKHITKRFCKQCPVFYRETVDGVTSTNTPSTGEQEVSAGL
Sequence of chemokine receptor CCR7 (human) (P32248 25-378): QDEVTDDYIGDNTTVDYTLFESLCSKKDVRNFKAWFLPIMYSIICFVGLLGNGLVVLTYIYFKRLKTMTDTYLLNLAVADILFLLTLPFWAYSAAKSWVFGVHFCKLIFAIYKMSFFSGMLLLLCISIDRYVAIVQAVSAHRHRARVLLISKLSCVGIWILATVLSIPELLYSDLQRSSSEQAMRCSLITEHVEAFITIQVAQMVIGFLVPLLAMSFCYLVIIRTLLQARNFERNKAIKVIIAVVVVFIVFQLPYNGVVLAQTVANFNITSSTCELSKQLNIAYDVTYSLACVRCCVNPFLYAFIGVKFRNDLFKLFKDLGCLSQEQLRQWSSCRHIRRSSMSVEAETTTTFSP

- EC50, agonist activity, Aequorin assay [1]: 0.7 nM
Substance: recombinant native ITAC (from UniProt O14625 22-94) (ligand)

- EC50, agonist activity, Aequorin assay [1]: 4.4 nM
Substance: recombinant native IP-10 (from UniProt P02778 22-98) (ligand)

- EC50, agonist activity, Aequorin assay [2]: 2.6 nM
Substance: recombinant native TARC (from UniProt Q92583 24-94) (ligand)

- reduction of CCR6-expressing cells by the column (flow cytometry before and after passage) [3]: < 15%
Substance: biotinylated MIP-3alpha (from UniProt P78556 27-96) (ligand)

- EC50, agonist activity, Aequorin assay [4]: 67.9 nM
Substance: recombinant native TECK (from UniProt O15444 24-150) (ligand)

- EC50, agonist activity, Aequorin assay [5]: 1.6 nM
Substance: recombinant native MIP-3β (from UniProt Q99731 22-98) (ligand)

- EC50, agonist activity, Aequorin assay [4]: 63.6 nM
Substance: biotinTECK(Met to Nleu substitution) (CCL25), derivatised at the ε-amino side chain functionality of Lys72 with PEG-Biotin (from UniProt O15444 25-97) (ligand)

- EC50, agonist activity, Aequorin assay [2]: 3.6 nM
Substance: recombinant native MDC (from UniProt O00626 25-93) (ligand)

- EC50, agonist activity, Aequorin assay [3]: 1 nM
Substance: recombinant native MIP-3α (from UniProt P78556 27-96) (ligand)

- EC50, Aequorin assay (partial agonist) [6]: 23.5 nM
Substance: recombinant native MCP-2 (from UniProt P80075 24-99) (ligand)

- EC50, agonist activity, Aequorin assay [7]: 33.5 nM
Substance: recombinant native CTAC (from UniProt Q9Y4X3 25-112) (ligand)

- EC50, agonist activity, Aequorin assay [8]: 17.3 nM
Substance: biotinSDF-1α (CXCL12), SDF-1α derivatised at the ε-amino side chain functionality of Lys(64) with Biotin (from UniProt P48061 22-67) (ligand)
